Assay results taken from patent US7964700B2, “Inhibitors of Taspase1 protease activity” (Dana-Farber Cancer Institute, Inc., priority 2003, dated 2011).
No end group written: not given here.

Molecular target: T1, rTaspase1 (Homo sapiens, UniProt Q9H6P5)
T1 construct: Full-length Taspase1 was cloned from 293T cell cDNA and inserted into the Myc/Flag doubly-tagged expression vector; made in house; host or cells: E. coli BL21(DE3)
T1 sequence (Q9H6P5 1-233): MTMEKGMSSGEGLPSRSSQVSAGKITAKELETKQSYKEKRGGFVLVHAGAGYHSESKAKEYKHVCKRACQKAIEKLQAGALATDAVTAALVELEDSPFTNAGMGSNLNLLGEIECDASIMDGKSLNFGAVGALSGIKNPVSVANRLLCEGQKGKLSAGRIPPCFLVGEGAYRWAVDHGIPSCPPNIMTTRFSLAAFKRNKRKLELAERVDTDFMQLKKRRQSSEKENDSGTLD
T1 sequence (Q9H6P5 234-420): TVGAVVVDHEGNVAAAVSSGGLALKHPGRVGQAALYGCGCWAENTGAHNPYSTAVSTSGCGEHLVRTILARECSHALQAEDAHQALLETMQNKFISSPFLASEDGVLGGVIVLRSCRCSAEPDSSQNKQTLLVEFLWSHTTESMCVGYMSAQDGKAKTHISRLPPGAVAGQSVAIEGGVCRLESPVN
Assay: In vitro cleavage assay: labeled MLL substrate incubated with rTaspase1 and peptide inhibitor, SDS-PAGE and autoradiography
Format: biochemical
Details: for inhibitory effect on the rTaspase1 enzyme (MLL substrate cleavage) / dose response: effectiveness of polypeptide-aldehyde Taspase1 inhibitors: 5 ng rTaspase1, 20 minutes; for inhibitory effect on the rTaspase1 enzyme (MLL substrate cleavage): then labeled substrate 60 minutes at 37° C.; for dose response: effectiveness of polypeptide-aldehyde Taspase1 inhibitors: concentrations of FIGS. 11A-11C
Experimental: Polypeptides of varying length (i.e., 4 to 7 amino acids in length) were prepared to identify preferred lengths and sequences of polypeptide inhibitors of Taspase1. The polypeptide inhibitors were based on the amino acid sequence that includes a upstream portion of the CS2 cleavage site of MLL as well as a portion of the CS2 cleavage site (See FIG. 1B and FIG. 9). The peptide inhibitors were purchased from Tufts University Peptide Core Facility and AnaSpec Inc. of San Jose, Calif. 1 mM of each of the inhibitors was incubated with 5 ng of rTaspase1 for 20 minutes before adding labeled substrate for another 60 minutes at 37° C. The results were analyzed by SDS-PAGE followed by autoradiography.
In order to determine a preferred length of polypeptide inhibitors of Taspase1, dose responses were tested for a six amino acid polypeptide inhibitor (KISQLA) (SEQ ID NO:8) and a five amino acid polypeptide inhibitor (ISQLA) (SEQ ID NO:7). The polypeptides were incubated at the concentrations depicted in FIG. 10 with 5 ng of rTaspase1 for 20 minutes before adding labeled MLL substrate for another 60 minutes at 37° C. The results were analyzed by SDS-PAGE followed by autoradiography.
Three modified polypeptide inhibitors were prepared wherein the carboxy terminals of the polypeptides were replaced with an aldehyde (SQLA-aldehyde (SEQ ID NO:17), SQLD-aldehyde (SEQ ID NO:9), and KISQLD-aldehyde (SEQ ID NO:11)). Chemical syntheses of these modified polypeptides is well known to one of skill in the art, and the modified polypeptides are also are available commercially at AnaSpec Inc. of San Jose, Calif. The polypeptides were incubated in the concentrations depicted in FIGS. 11A-11C with 5 ng of rTaspase1 for 20 minutes before adding labeled MLL substrate for another 60 minutes at 37° C. The results were analyzed by SDS-PAGE followed by autoradiography. […] Accordingly, the modified polypeptides can keep the active site of the enzyme occupied for a greater length of time, blocking entrance of the MLL substrate from entering the active site as required for cleavage. […] (See FIG. 11C.).
^35S-methionine labeled MLL substrate was incubated with 2 μl of indicated subcellular fractions or specified amounts of rTaspase1 in cleavage buffer (100 mM HEPES [pH 7.9], 5 mM MgCl2, 20 mM KCl, 5 mM DTT, and 10% sucrose) for 1 hour at 37° C. or indicated periods of time. Protease inhibitors utilized include 8.5 μM Phosphoramidon, 100 μM TLCK, 100 μM TPCK, 5 mM Iodoacetamide, 5 mM N-Ethylmaleimide, 0.3 μM Aprotinin, 100 μM Leupeptin, 1 μM Pepstatin, 1× Complete protease inhibitor cocktail (Roche), 100 μM Antipain, 100 μM APMSF, 10 μM Bestatin, 25 μM ALLN, 100 μM Chymostatin, […] E-64, 5 mM EDTA, 1 mM PMSF, 1 mM EGTA, 50 μM BAF (Boc-Aspartyl-FMK), and 50 μM z-VAD (z-VAD-FMK).

[1] = then labeled MLL substrate 60 minutes at 37° C.

Row | Substance | inhibitory effect on the rTaspase1 enzyme (MLL substrate cleavage) (1 mM inhibitor, FIG. 9) | other results
1 | Ile-Ser-Gln-Leu-Ala (ISQLA; listed as Homo sapiens) | – | dose response: effectiveness as Taspase1 inhibitor, five versus six amino acid polypeptide (concentrations of FIG. 10, 5 ng rTaspase1, 20 minutes, then labeled MLL substrate 60 minutes at 37° C.): more effective inhibitor at lower concentrations than the corresponding six amino acid polypeptide
2 | Ile-Ser-Gln-Leu-Asp (ISQLD; listed as Homo sapiens) | little inhibitory effect | –
3 | KISQA: polypeptide with P1 alanine and omission of the leucine residue at P2 (listed as Homo sapiens) | inhibitory effect was observed | inhibition of rTaspase1 relative to ISQLA (P2 leucine omitted) (1 mM inhibitor, 5 ng rTaspase1, FIG. 9): significantly decreased inhibition
4 | KISQLA | inhibitory effect was observed | –
5 | KISQLD: six amino acid polypeptide based on the sequence upstream of the CS2 cleavage site of MLL (listed as Homo sapiens) | little inhibitory effect | –
6 | KISdQLA: polypeptide where the P1 aspartate residue was substituted for an alanine residue (KISDQLA; not fully specified (residue 4); printed as KISdQLA; listed as Homo sapiens) | inhibitory effect was observed | –
7 | Lys-Ile-Ser-Gln-Leu-Asp-aldehyde (KISQLD-aldehyde) | – | dose response: effectiveness of polypeptide-aldehyde Taspase1 inhibitors [1]: more effective than both of the four amino acid aldehyde
8 | SQLD: four amino acid polypeptide based on the sequence upstream of the CS2 cleavage site of MLL (listed as Homo sapiens) | little inhibitory effect | –
9 | Ser-Gln-Leu-Asp-aldehyde (SQLD-aldehyde) | – | dose response: effectiveness of polypeptide-aldehyde Taspase1 inhibitors [1]: more effective inhibitor than the SQLA-aldehyde
